Read-outs that look alike come from different tables or passages of the source.
What was measured:
[1] = PET/CT imaging in NCI-H292 tumor bearing nude mice; assay type: in vivo; conditions: mouse, iv, subcutaneous NCI-H292 tumor, 11 MBq via tail vein, 2 hours post-injection, PET/CT quantified by PMODE, read-out: tumor/muscle ratio (T/M ratio)
Procedure: In this example, the bispecific peptide conjugate (that is, ^68Ga-NOTA-RGD-GE11) tagged with a radioactive isotope prepared in Example 2 was tested and was compared with monospecific peptide conjugate ^68Ga-NOTA-GE11. The right thigh of nude mice was subcutaneously inoculated with 5×10^6 NCI-H292 tumor cells. The tumors were allowed to grow for about 4 weeks until the tumor size reached 0.5 cm diameter. Then, the animals were anesthetized with isoflorane, injected with 11 MBq ^68Ga-NOTA-RGD-GE11 or ^68Ga-NOTA-GE11 (0.1 mL) via the tail vein, and imaged for 2 hours by Positron Emission Tomography/Computed Tomography (PET/CT). The images were quantified by using PMODE Software.

[2] = molecular target: T1, EGFR in A549 tumor cells (Homo sapiens, UniProt P00533); test: Specific binding assay: inhibition of anti-EGFR antibody binding to A549 tumor cells; assay type: cell-based; conditions: various concentrations, 2 hrs, absorbance decreases with increasing concentration
T1 construct: endogenous in cells; host or cells: A549 tumor cells
Procedure: (§1) In this example, the bispecific peptide conjugate (that is, NOTA-c(RGDyk)-cys-6-ahx-GE11) prepared in Example 1 was assayed.
(§2) A549 tumor cells were plated in a 96-well plate (5×10^4 cells/well). Various concentrations of NOTA-c(RGDyk)-cys-6-ahx-GE11 and anti-EGFR antibody or anti-integrin αV antibody were added and reacted for 2 hrs. Then, a secondary antibody and ABTS were added and reacted for 8 hrs. The antibody binding was assayed by a fluorimeter.

[3] = molecular target: T2, integrin αV in A549 tumor cells (Homo sapiens, UniProt P05106+P06756); test: Specific binding assay: inhibition of anti-integrin αV antibody binding to A549 tumor cells; assay type: cell-based; conditions: various concentrations, 2 hrs, absorbance decreases with increasing concentration
T2 construct: endogenous in cells; host or cells: A549 tumor cells
T2 sequence (P06756 31-889 limits assumed): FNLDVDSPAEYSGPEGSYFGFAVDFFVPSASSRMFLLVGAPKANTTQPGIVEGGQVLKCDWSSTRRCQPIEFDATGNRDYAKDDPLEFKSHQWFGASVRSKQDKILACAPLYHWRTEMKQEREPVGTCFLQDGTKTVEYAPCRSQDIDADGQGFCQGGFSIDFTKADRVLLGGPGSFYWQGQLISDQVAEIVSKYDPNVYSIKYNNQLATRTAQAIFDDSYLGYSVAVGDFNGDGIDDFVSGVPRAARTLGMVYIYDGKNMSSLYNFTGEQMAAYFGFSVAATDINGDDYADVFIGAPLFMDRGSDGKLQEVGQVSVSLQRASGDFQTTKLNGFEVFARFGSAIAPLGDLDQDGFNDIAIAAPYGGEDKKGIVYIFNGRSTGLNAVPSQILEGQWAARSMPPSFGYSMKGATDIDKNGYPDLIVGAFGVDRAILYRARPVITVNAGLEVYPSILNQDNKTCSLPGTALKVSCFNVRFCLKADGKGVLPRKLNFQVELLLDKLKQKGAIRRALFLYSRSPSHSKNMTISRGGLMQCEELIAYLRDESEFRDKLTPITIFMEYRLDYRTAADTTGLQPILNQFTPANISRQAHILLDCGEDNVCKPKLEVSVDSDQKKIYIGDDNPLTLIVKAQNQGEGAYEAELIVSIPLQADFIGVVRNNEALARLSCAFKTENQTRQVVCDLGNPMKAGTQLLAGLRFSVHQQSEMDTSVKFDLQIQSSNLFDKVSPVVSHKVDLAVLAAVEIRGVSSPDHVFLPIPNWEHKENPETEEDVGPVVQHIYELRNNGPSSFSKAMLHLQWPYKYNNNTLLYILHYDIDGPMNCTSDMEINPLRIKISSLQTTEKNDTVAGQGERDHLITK
T2 sequence (P06756 891-1048 partner limits assumed): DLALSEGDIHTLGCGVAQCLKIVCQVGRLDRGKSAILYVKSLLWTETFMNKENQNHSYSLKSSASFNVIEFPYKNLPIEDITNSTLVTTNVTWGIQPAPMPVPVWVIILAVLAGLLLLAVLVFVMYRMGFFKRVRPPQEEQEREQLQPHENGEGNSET
T2 sequence (P05106 27-788): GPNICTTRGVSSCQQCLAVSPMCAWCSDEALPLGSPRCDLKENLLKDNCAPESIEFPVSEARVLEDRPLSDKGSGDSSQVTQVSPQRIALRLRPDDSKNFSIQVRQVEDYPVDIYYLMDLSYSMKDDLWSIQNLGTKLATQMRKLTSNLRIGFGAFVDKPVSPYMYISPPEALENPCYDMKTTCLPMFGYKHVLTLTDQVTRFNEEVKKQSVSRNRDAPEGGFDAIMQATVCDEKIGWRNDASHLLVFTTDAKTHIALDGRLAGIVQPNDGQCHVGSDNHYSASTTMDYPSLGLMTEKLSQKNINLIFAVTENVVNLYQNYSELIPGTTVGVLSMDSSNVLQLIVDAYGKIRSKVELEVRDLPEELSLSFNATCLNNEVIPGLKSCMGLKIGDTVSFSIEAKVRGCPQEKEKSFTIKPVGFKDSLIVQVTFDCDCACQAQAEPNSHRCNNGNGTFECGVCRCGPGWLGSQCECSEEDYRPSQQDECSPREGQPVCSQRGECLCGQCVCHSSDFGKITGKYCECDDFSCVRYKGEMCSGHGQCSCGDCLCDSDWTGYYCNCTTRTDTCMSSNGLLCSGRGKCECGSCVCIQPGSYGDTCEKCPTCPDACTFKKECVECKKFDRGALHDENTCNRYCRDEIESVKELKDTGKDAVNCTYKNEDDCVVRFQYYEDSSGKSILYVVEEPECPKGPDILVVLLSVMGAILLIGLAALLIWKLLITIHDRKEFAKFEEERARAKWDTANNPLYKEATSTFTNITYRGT
Procedure: as §1, §2

Molecule: CC[C@H](C)[C@H](NC(=O)[C@@H](NC(=O)[C@H](CC(N)=O)NC(=O)[C@H](CCC(N)=O)NC(=O)[C@@H]1CCCN1C(=O)[C@@H](NC(=O)[C@H](Cc1ccc(O)cc1)NC(=O)CNC(=O)[C@H](Cc1ccc(O)cc1)NC(=O)[C@H](Cc1c[nH]c2ccccc12)NC(=O)[C@H](Cc1c[nH]cn1)NC(=O)[C@H](Cc1ccc(O)cc1)NC(=O)CCCCCNC(=O)[C@H](CSC1CC(=O)N(CCC(=O)NCCCC[C@@H]2NC(=O)[C@@H](Cc3ccc(O)cc3)NC(=O)[C@H](CC(=O)O)NC(=O)CNC(=O)[C@H](CCCNC(=N)N)NC2=O)C1=O)NC(=O)CN1CCN(CC(=O)O)CCN(CC(=O)O)CC1)[C@@H](C)O)C(C)C)C(=O)O (stereo partly shown) [^68Ga-NOTA-RGD-GE11, metal not drawn]
- tissue to tissue ratio at 2 h ([1]; tumor / muscle, total radioactivity): 4.31

Molecule: NOTA-c(RGDyk)-cys-6-ahx-GE11
- inhibition of the binding of the anti-EGFR antibody to tumor cells [2]: can effectively inhibit the binding
- inhibition of the binding of the anti-integrin αV antibody to tumor cells [3]: can effectively inhibit the binding

Molecule: CC[C@H](C)[C@H](NC(=O)[C@@H](NC(=O)[C@H](CC(N)=O)NC(=O)[C@H](CCC(N)=O)NC(=O)[C@@H]1CCCN1C(=O)[C@@H](NC(=O)[C@H](Cc1ccc(O)cc1)NC(=O)CNC(=O)[C@H](Cc1ccc(O)cc1)NC(=O)[C@H](Cc1c[nH]c2ccccc12)NC(=O)[C@H](Cc1c[nH]cn1)NC(=O)[C@H](Cc1ccc(O)cc1)NC(=O)CCCCCNC(=O)[C@H](CS)NC(=O)CN1CCN(CC(=O)O)CCN(CC(=O)O)CC1)[C@@H](C)O)C(C)C)C(=O)O [^68Ga-NOTA-GE11, metal not drawn, reference compound]
- tissue to tissue ratio at 2 h ([1]; in vivo): 1.87

From patent publication US9981050B2, “Bispecific peptide conjugate and radioactive bispecific peptide imaging agent” (Institute of Nuclear Energy Research, Atomic Energy …, priority 2015, dated 2018)
